These results are taken from IntAct's records for PubMed 30559186.

The target of this assay is bi1_human TMBIM6 (UniProt P55061).
Chain of bi1_human TMBIM6 (P55061 whole entry): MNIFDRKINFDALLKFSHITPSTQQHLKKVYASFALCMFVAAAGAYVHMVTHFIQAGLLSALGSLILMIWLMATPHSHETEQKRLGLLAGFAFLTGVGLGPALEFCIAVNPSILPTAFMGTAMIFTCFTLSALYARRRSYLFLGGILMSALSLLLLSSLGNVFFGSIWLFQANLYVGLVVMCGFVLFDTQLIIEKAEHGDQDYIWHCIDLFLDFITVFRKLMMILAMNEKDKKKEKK
Consider “Presenilin-1 (Homo sapiens) (from UniProt P49768) I143V”, for which the “effect of a mutation on the interaction” value is “with no effect”.
With “Presenilin-1 (Homo sapiens) (from UniProt P49768) I439V”, the “effect of a mutation on the interaction” value is listed as “with no effect”.
“Presenilin-1 (Homo sapiens) (from UniProt P49768) L381V”: the “effect of a mutation on the interaction” value is listed as “with no effect”.
Next, “Presenilin-1 (Homo sapiens) (from UniProt P49768) M233L”: “with no effect”.
Next, “Presenilin-1 (Homo sapiens) (from UniProt P49768) P284S”: “with no effect”; “Presenilin-1 (Homo sapiens) (from UniProt P49768) S169P”: “with no effect”.
Next, “Presenilin-1 (Homo sapiens) (from UniProt P49768) V272A”: “with no effect”.
